From US20260193293A1, “PEPTIDES CAPABLE OF INHIBITING PROTEIN-PROTEIN INTERACTIONS AT GABAB1A SUBUNIT AND USES THEREOF” (UNIVERSITY OF COPENHAGEN, priority 2022, published 2026)
Non-standard residues stand in square brackets, D forms with d. NMeW = CN[C@@H](Cc1c[nH]c2ccccc12)C(=O)O; NMeF = CN[C@@H](Cc1ccccc1)C(=O)O; NMeI = CC[C@H](C)[C@H](NC)C(=O)O; NMeT = CN[C@H](C(=O)O)[C@@H](C)O; NMeE = CN[C@@H](CCC(=O)O)C(=O)O; NMeD = CN[C@@H](CC(=O)O)C(=O)O; Sar = CNCC(=O)O

Target: Sushi domains (SD1/2) protein of the GABAB1a (GB1a) subunit, recombinant
Sequence (Q9Z0U4 29-158): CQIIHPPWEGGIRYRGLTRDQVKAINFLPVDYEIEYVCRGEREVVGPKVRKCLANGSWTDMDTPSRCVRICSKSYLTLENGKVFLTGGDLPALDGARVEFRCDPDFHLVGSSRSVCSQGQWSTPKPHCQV
Assay: FP competition

Row | Binder | Ki [nM]
1 | Ac-ATEFIAWGPTGDED-NH2 | 53
2 | Ac-ETE[NMeF]IAWGPTGDED-NH2 (SMILES CC[C@H](C)[C@H](NC(=O)[C@H](Cc1ccccc1)N(C)C(=O)[C@H](CCC(=O)O)NC(=O)[C@@H](NC(=O)[C@H](CCC(=O)O)NC(C)=O)[C@@H](C)O)C(=O)N[C@@H](C)C(=O)N[C@@H](Cc1c[nH]c2ccccc12)C(=O)NCC(=O)N1CCC[C@H]1C(=O)N[C@H](C(=O)NCC(=O)N[C@@H](CC(=O)O)C(=O)N[C@@H](CCC(=O)O)C(=O)N[C@@H](CC(=O)O)C(N)=O)[C@@H](C)O) [ETE(N-Me-F)…] | 252
3 | Ac-ETEAIAWGPTGDED-NH2 | 688
4 | Ac-ETEFIAWGPTGAED-NH2 | 50
5 | Ac-ETEFIAWG[dP]TGDED-NH2 [ETEFIAWGpTGDED] | 352
6 | Ac-ETEFIAWGPAGDED-NH2 | 89
7 | Ac-ETEFIAWAPTGDED-NH2 | 196
8 | Ac-ETE[dF]IAWGPTGDED-NH2 [ETEf…] | 930
9 | Ac-ETAFIAWGPTGDED-NH2 | 49
10 | Ac-ETEFIAWGPT[dA]DED-NH2 (SMILES CC[C@H](C)[C@H](NC(=O)[C@H](Cc1ccccc1)NC(=O)[C@H](CCC(=O)O)NC(=O)[C@@H](NC(=O)[C@H](CCC(=O)O)NC(C)=O)[C@@H](C)O)C(=O)N[C@@H](C)C(=O)N[C@@H](Cc1c[nH]c2ccccc12)C(=O)NCC(=O)N1CCC[C@H]1C(=O)N[C@H](C(=O)N[C@H](C)C(=O)N[C@@H](CC(=O)O)C(=O)N[C@@H](CCC(=O)O)C(=O)N[C@@H](CC(=O)O)C(N)=O)[C@@H](C)O) […aDED] | 54
11 | Ac-ET[dE]FIAWGPTGDED-NH2 [ETe…] | 178
12 | Ac-ETEFIAWGPT[Sar]DED-NH2 (SMILES CC[C@H](C)[C@H](NC(=O)[C@H](Cc1ccccc1)NC(=O)[C@H](CCC(=O)O)NC(=O)[C@@H](NC(=O)[C@H](CCC(=O)O)NC(C)=O)[C@@H](C)O)C(=O)N[C@@H](C)C(=O)N[C@@H](Cc1c[nH]c2ccccc12)C(=O)NCC(=O)N1CCC[C@H]1C(=O)N[C@H](C(=O)N(C)CC(=O)N[C@@H](CC(=O)O)C(=O)N[C@@H](CCC(=O)O)C(=O)N[C@@H](CC(=O)O)C(N)=O)[C@@H](C)O) […(N-Me-G)DED] | 132
13 | Ac-ETEFIAWGATGDED-NH2 | 291
14 | Ac-E[dT]EFIAWGPTGDED-NH2 [Et…] | 56
15 | Ac-ETEFIA[NMeW]GPTGDED-NH2 (SMILES CC[C@H](C)[C@H](NC(=O)[C@H](Cc1ccccc1)NC(=O)[C@H](CCC(=O)O)NC(=O)[C@@H](NC(=O)[C@H](CCC(=O)O)NC(C)=O)[C@@H](C)O)C(=O)N[C@@H](C)C(=O)N(C)[C@@H](Cc1c[nH]c2ccccc12)C(=O)NCC(=O)N1CCC[C@H]1C(=O)N[C@H](C(=O)NCC(=O)N[C@@H](CC(=O)O)C(=O)N[C@@H](CCC(=O)O)C(=O)N[C@@H](CC(=O)O)C(N)=O)[C@@H](C)O) [ETEFIA(N-Me-W)GPTGDED] | 46
16 | Ac-EDDSDVWWGGADT[NMeD]-NH2 (SMILES CC(=O)N[C@@H](CCC(=O)O)C(=O)N[C@@H](CC(=O)O)C(=O)N[C@@H](CC(=O)O)C(=O)N[C@@H](CO)C(=O)N[C@@H](CC(=O)O)C(=O)N[C@H](C(=O)N[C@@H](Cc1c[nH]c2ccccc12)C(=O)N[C@@H](Cc1c[nH]c2ccccc12)C(=O)NCC(=O)NCC(=O)N[C@@H](C)C(=O)N[C@@H](CC(=O)O)C(=O)N[C@H](C(=O)N(C)[C@@H](CC(=O)O)C(N)=O)[C@@H](C)O)C(C)C) […(N-Me-D)] | 565
17 | Ac-ETEFIAW[dA]PTGDED-NH2 [ETEFIAWaPTGDED] | 5400
18 | Ac-ET[NMeE]FIAWGPTGDED-NH2 (SMILES CC[C@H](C)[C@H](NC(=O)[C@H](Cc1ccccc1)NC(=O)[C@H](CCC(=O)O)N(C)C(=O)[C@@H](NC(=O)[C@H](CCC(=O)O)NC(C)=O)[C@@H](C)O)C(=O)N[C@@H](C)C(=O)N[C@@H](Cc1c[nH]c2ccccc12)C(=O)NCC(=O)N1CCC[C@H]1C(=O)N[C@H](C(=O)NCC(=O)N[C@@H](CC(=O)O)C(=O)N[C@@H](CCC(=O)O)C(=O)N[C@@H](CC(=O)O)C(N)=O)[C@@H](C)O) [ET(N-Me-E)…] | 159
19 | Ac-ETEFIAWGP[NMeT]GDED-NH2 (SMILES CC[C@H](C)[C@H](NC(=O)[C@H](Cc1ccccc1)NC(=O)[C@H](CCC(=O)O)NC(=O)[C@@H](NC(=O)[C@H](CCC(=O)O)NC(C)=O)[C@@H](C)O)C(=O)N[C@@H](C)C(=O)N[C@@H](Cc1c[nH]c2ccccc12)C(=O)NCC(=O)N1CCC[C@H]1C(=O)N(C)[C@H](C(=O)NCC(=O)N[C@@H](CC(=O)O)C(=O)N[C@@H](CCC(=O)O)C(=O)N[C@@H](CC(=O)O)C(N)=O)[C@@H](C)O) […(N-Me-T)GDED] | 77
20 | Ac-[dE]TEFIAWGPTGDED-NH2 (SMILES CC[C@H](C)[C@H](NC(=O)[C@H](Cc1ccccc1)NC(=O)[C@H](CCC(=O)O)NC(=O)[C@@H](NC(=O)[C@@H](CCC(=O)O)NC(C)=O)[C@@H](C)O)C(=O)N[C@@H](C)C(=O)N[C@@H](Cc1c[nH]c2ccccc12)C(=O)NCC(=O)N1CCC[C@H]1C(=O)N[C@H](C(=O)NCC(=O)N[C@@H](CC(=O)O)C(=O)N[C@@H](CCC(=O)O)C(=O)N[C@@H](CC(=O)O)C(N)=O)[C@@H](C)O) [e…] | 46

Stronger by Ki, values ahead:

Row | Ki [nM] | Binder
21 | 32 | Ac-ETEFIAWG[Sar]TGDED-NH2 (SMILES CC[C@H](C)[C@H](NC(=O)[C@H](Cc1ccccc1)NC(=O)[C@H](CCC(=O)O)NC(=O)[C@@H](NC(=O)[C@H](CCC(=O)O)NC(C)=O)[C@@H](C)O)C(=O)N[C@@H](C)C(=O)N[C@@H](Cc1c[nH]c2ccccc12)C(=O)NCC(=O)N(C)CC(=O)N[C@H](C(=O)NCC(=O)N[C@@H](CC(=O)O)C(=O)N[C@@H](CCC(=O)O)C(=O)N[C@@H](CC(=O)O)C(N)=O)[C@@H](C)O) [peptide 38 (Ac-ETEFIAWG(N-Me-G)TGDED-NH2)]
22 | 29 | Ac-ETEFIAWGPTG[dD]ED-NH2 […dED]
23 | 39 | Ac-ETEFIAWGPTGDE[dD]-NH2 […d]
24 | 37 | Ac-E[NMeT]EFIAWGPTGDED-NH2 (SMILES CC[C@H](C)[C@H](NC(=O)[C@H](Cc1ccccc1)NC(=O)[C@H](CCC(=O)O)NC(=O)[C@H]([C@@H](C)O)N(C)C(=O)[C@H](CCC(=O)O)NC(C)=O)C(=O)N[C@@H](C)C(=O)N[C@@H](Cc1c[nH]c2ccccc12)C(=O)NCC(=O)N1CCC[C@H]1C(=O)N[C@H](C(=O)NCC(=O)N[C@@H](CC(=O)O)C(=O)N[C@@H](CCC(=O)O)C(=O)N[C@@H](CC(=O)O)C(N)=O)[C@@H](C)O) [E(N-Me-T)…]
25 | 44 | Ac-ETEFIAWGPTGDEA-NH2
26 | 44 | Ac-ETEFIAWGPTGD[dE]D-NH2 […eD]
27 | 34 | Ac-EAEFIAWGPTGDED-NH2
28 | 35 | Ac-[NMeE]TEFIAWGPTGDED-NH2 (SMILES CC[C@H](C)[C@H](NC(=O)[C@H](Cc1ccccc1)NC(=O)[C@H](CCC(=O)O)NC(=O)[C@@H](NC(=O)[C@H](CCC(=O)O)N(C)C(C)=O)[C@@H](C)O)C(=O)N[C@@H](C)C(=O)N[C@@H](Cc1c[nH]c2ccccc12)C(=O)NCC(=O)N1CCC[C@H]1C(=O)N[C@H](C(=O)NCC(=O)N[C@@H](CC(=O)O)C(=O)N[C@@H](CCC(=O)O)C(=O)N[C@@H](CC(=O)O)C(N)=O)[C@@H](C)O) [(N-Me-E)…]
29 | 20 | Ac-ETEFIAWGPTADED-NH2
30 | 33 | Ac-ETEF[NMeI]AWGPTGDED-NH2 (SMILES CC[C@H](C)[C@@H](C(=O)N[C@@H](C)C(=O)N[C@@H](Cc1c[nH]c2ccccc12)C(=O)NCC(=O)N1CCC[C@H]1C(=O)N[C@H](C(=O)NCC(=O)N[C@@H](CC(=O)O)C(=O)N[C@@H](CCC(=O)O)C(=O)N[C@@H](CC(=O)O)C(N)=O)[C@@H](C)O)N(C)C(=O)[C@H](Cc1ccccc1)NC(=O)[C@H](CCC(=O)O)NC(=O)[C@@H](NC(=O)[C@H](CCC(=O)O)NC(C)=O)[C@@H](C)O) [ETEF(N-Me-I)…]
31 | 38 | Ac-ETEFIAWGPTGDAD-NH2
